Experimental data as given in patent publication US11708423B2, “Chimeric engulfment receptor molecules and methods of use” (CERO THERAPEUTICS, INC., priority 2017, dated 2023).

Columns and labels:
[1] = system: CER-transduced CD4+ T cells; assay: Mass cytometry (CyTOF) with viSNE marker analysis of CER-transduced CD4+ T cells; assay type: cell-based, human
Source text: CD4+ T cells were transduced with lentiviral vector comprising CER104, CER116, or CER117 nucleic acid. CER104 (SEQ ID NO:133) comprises a Tim4 binding domain, Tim4 transmembrane domain, and an engulfment signaling domain comprising a primary engulfment signaling domain comprising a TLR8 signaling domain and a secondary engulfment signaling domain comprising a DAP12 signaling domain. CER116 (SEQ ID NO:143) comprises a Tim4 binding domain, Tim4 transmembrane domain, and an engulfment signaling domain comprising a primary engulfment signaling domain comprising a TRAF6 signaling domain and a secondary engulfment signaling domain comprising a TLR8 signaling domain. CER117 (SEQ ID NO:144) comprises a Tim4 binding domain, Tim4 transmembrane domain, and an engulfment signaling domain comprising a primary engulfment signaling domain comprising a TLR8 signaling domain and a secondary engulfment signaling domain comprising a TRAF6 signaling domain. CER-transduced CD4+ T cells were co-cultured with E7 TCR-transduced CD8+ T cells and HPV+SCC152 target cells and interrogated by mass cytometry (CyTOF) with viSNE for visualization of high dimensional single cell data (FIGS. 82-84). Intact CER-transduced CD4+ T cells are shown in plots displaying tSNE1 (horizontal) and tSNE2 (vertical) axes. 27 intracellular markers were used for the viSNE analysis. Each dot represents a single cell. […] Red represents high expression and blue represents low expression for each marker. Populations of CD4^+ T cells were generated using a clustering algorithm from all 27 markers and overlaid onto the viSNE map. […] Populations of CD4^+ T cells were generated using a clustering algorithm from all 18 markers and overlaid onto the viSNE map (FIG. 83A). […] Color plots by 18 intracellular markers (CD28, CCR7, CD45RA, PD1, CD127, Perforin, CD49d, CD85j, CD38, CD27, Granzyme B, CD57, CD25, CD69, CD154, CD56, HLA-DR, and TCRγδ) show the phenotype across viSNE ‘islands’ (FIG. 83B). Red represents high expression and blue represents low expression for each marker. Highlighted region with arrow indicates cells expressing T cell activation marker CD69. Populations of CD4^+ T cells were generated using a clustering algorithm from 18 intracellular markers (CD28, CCR7, CD45RA, PD1, CD127, Perforin, CD49d, CD85j, CD38, CD27, Granzyme B, CD57, CD25, CD69, CD154, CD56, HLA-DR, and TCRγ6) and overlaid onto the viSNE map. […] Color plots by the 18 intracellular markers show the phenotype across viSNE ‘islands’ (FIG. 84B). Red represents high expression and blue represents low expression for each marker. Highlighted region with arrow indicates cells expressing the naïve T cell marker CD45RA.

Racl = Racl activation (PAK-PBD pull-down, immunoblot) in CER-transduced Ba/F3 cells; assay type: cell-based; conditions: 2 hours co-culture with thymocytes, compared to CER21
Source text: The Rho family of GTPases play essential roles in actin assembly during phagocytosis. Inhibition of either Rho GTPase Racl or CDC42 in macrophages results in a complete blockade of FcR-mediated phagocytosis due to defective actin assembly. To investigate induction of phagocytic signal transduction cascades, CER-expressing cells were interrogated for the activation of CDC42 and Racl. […] Ba/F3 cells were transduced with lentiviral vectors comprising CER21 nucleic acid, CER116 nucleic acid, or vector alone (mock). Target thymocyte cells were stained with pHrodo red. CER-transduced Ba/F3 cells were co-cultured with dexamethasone pre-treated thymocytes for 2 hours. The Racl inhibitor NSC23766 (Selleck Chem) was added during the co-culture in appropriate wells. Cells were then collected, solubilized in lysis buffer, and immunoprecipitation was performed on protein lysates to detect phospho-Racl using PAK-PBD agarose beads (Cytoskeleton, Inc.). Immunoprecipitates were eluted and 25 μg of protein was loaded onto SDS-PAGE gradient gels and then probed with monoclonal, mouse anti-Racl primary antibody (Cytoskeleton Inc.) overnight at 4° C., washed, and hybridized with secondary, anti-mouse antibody conjugated to horseradish peroxidase (Jackson Labs) (FIG. 85A). […] Protein gel bands were quantified using ImageJ image processing program, and the proportion of activated Racl was quantified (FIG. 85B). […]

[2] = system: pHrodo-red labeled, dexamethasone treated thymocytes; assay: Luminal degradation of engulfed thymocytes in CER-transduced Ba/F3 cells (time-lapse imaging); assay type: cell-based
Description: Luminal degradation in CER-transduced cells was also evaluated following engulfment. Ba/F3 cells transduced with CER21 or CER116 were co-cultured with pHrodo-red labeled, dexamethasone treated thymocytes overnight and subsequently purified by FACS. Target cell destruction was visualized by time-lapse imaging and quantified over time (FIG. 85F). […] CER116-harboring Ba/F3 cells (top) catabolize target cells, allowing cells to return to homeostasis and resume immune responsiveness. The addition of a TRAF6 signaling domain to the CER construct promotes rapid destruction of engulfed material.

SCC152 cells [3] = assay: Phagocytic activity of tandem expression cassette transduced CD8+ T cells; assay type: cell-based, human
Description: Phagocytic activity of tandem expression cassette transduced CD8+ T cells was detected by co-culturing tandem expression cassette transduced CD8+ T cells with SCC152 cells for 6 hours at a 1:1 ratio. Phagocytic events were visualized and quantified using KEYENCE BZ-X710 fluorescence microscope, 20X objective and hybrid capture software.

[4] = Engulfment of phosphatidylserine coated latex beads; assay type: cell-based
SCC152 cells [5] = assay: Cytokine response of tandem cassette transduced CD8+ T cells; assay type: cell-based, human; conditions: CD8+ T cells co-cultured with SCC152 cells
SCC152 cells [6] = system: SCC152 cells
Description: Peripheral blood was collected by venipuncture from a human donor, and human peripheral blood mononuclear cells (PBMCs) were isolated by density gradient centrifugation using lymphocyte separation media. CD8+ T cells were enriched from PBMCs using a commercially available isolation kit and activated with anti-CD3 and anti-CD28 in Complete Cell Growth Media. 50 μl of viral vector expressing the CER-HPV16 E7 TCR combination were diluted in 0.5 ml Complete Cell Growth Media and added to the CD8+ T cells. The transduced T cells were then centrifuged at 270×g rpm for 1 hour in a 32° C. pre-warmed centrifuge. The T cells were incubated for 24 hours at 37° C. T cells were expanded for another 72 hours in Complete Cell Growth Media, de-beaded, and allowed to expand x 5 days prior to being utilized for functional assays.
Cytotoxic activity of tandem expression cassette transduced CD8+ T cells was detected using a caspase 3/7 apoptosis reagent (IncuCyte®) that couples the activated caspase 3/7 recognition motif with a red reagent that fluoresces upon cleavage. The fluorescent signal was measured using fluorescent microscopy. […] The caspase 3/7 apoptosis reagent was added to the co-culture, and cytotoxic activity was measured over time by measuring fluorescence (see, FIG. 40). […]

Row | Molecule | memory formation after antigen encounter ([1]; CD4+ T cells) | viSNE islands expressing T cell activation marker CD69 ([1]; CD4+ T cells after antigen encounter) | viSNE islands expressing intracellular marker IFNγ ([1]; CD4+ T cells after co-culture with E7 TCR CD8+ T cells and SCC152 cells) | viSNE islands expressing naïve T cell marker CD45RA within the CCR7+ population ([1]; compared to controls) | Racl signaling (proportion of activated Racl) (Racl) | time to near complete resolution of luminal contents [2] | luminal content degradation over time ([2]; FACS purified after overnight co-culture) | phagocytosis of SCC152 cells (SCC152 cells [3]; CD8+ T cells, 6 hours, 1:1 ratio) | dependence of engulfment of SCC152 cells on Racl (SCC152 cells [3]; Racl inhibitor NSC23766 (50 μM), data not shown) | incubation time after which phosphatidylserine coated beads could be visualized inside the T cells [4] | engulfment of phosphatidylserine coated beads ([4]; CD8+ T cells, data not shown) | antigen specific effector function (IFNγ response) (SCC152 cells [5]) | cytotoxic activity toward SCC152 cells (caspase 3/7) (SCC152 cells [6]; CD8+ T cells, 1:1 ratio) | cytotoxic response relative to CD8+ T cells comprising HPV16 E7 TCR alone (SCC152 cells [6]; by 6 hours)
1 | CER116: Tim4 binding and transmembrane domains, TRAF6 primary and TLR8 secondary signaling domains; SEQ ID NO:143 (protein, CER116 protein) MSKGLLLLWLVTELWWLYLTPAASEDTIIGFLGQPVTLPCHYLSWSQSRNSMCWGKGSCPNSKCNAELLRTDGTRIISRKSTKYTLLGKVQFGEVSLTISNTNRGDSGVYCCRIEVPGWFNDVKKNVRLELRRATTTKKPTTTTRPTTTPYVTTTTPELLPTTVMTTSVLPTTTPPQTLATTAFSTAVTTCPSTTPGSFSQETTKGSAFTTESETLPASNHSQRSMMTISTDIAVLRPTGSNPGILPSTSQLTTQKTTLTTSESLQKTTKSHQINSRQTILIIACCVGFVLMVLLFLAFLMSLLNCENSCGSSQSESDCCVAMASSCSAVTKDDSVGGTASTGNLSSSFMEEIQGYDVEFDPPLESKYECPICLMALREAVQTPCGHRFCKACIIKSIRDAGHKCPVDNEILLENQLFPDNFAKREILSLMVKCPNEGCLHKMELRHLEDHQAHCEFALMDCPQCQRPFQKFHINIHILKDCPRRQVSCDNCAASMAFEDKEIHDQNCPLANVICEYCNTILIREQMPNHYDLDCPTAPIPCTFSTFGCHEKMQRNHLARHLQENTQSHMRMLAHHLFYWDVWFIYNVCLAKVKGYRSLSTSQTFYDAYISYDTKDASVTDWVINELRYHLEESRDKNVLLCLEERDWDPGLAIIDNLMQSINQSKKTVFVLTKKYAKSWNFKTAFYLALQRLMDENMDVIIFILLEPVLQHSQYLRLRQRICKSSILQWPDNPKAEGLFWQTLRNVVLTENDSRYNNMYVDSIKQY | associated with memory formation after antigen encounter | enrichment of islands expressing the T cell activation marker CD69 | enrichment of islands expressing the intracellular marker IFNγ | loss of islands expressing the naïve T cell marker CD45RA | enhanced Racl signaling | ≤ 36 h | enhanced CER116 luminal content degradation over time | – | – | – | – | – | – | –
2 | CER21−HPV16 E7 TCR: tandem expression cassette: CER21, T2A peptide, HPV16 E7 specific TCR; SEQ ID NO:166 (protein, CER21_T2A_HPV16_E7_TCR tandem cassette) MSKGLLLLWLVTELWWLYLTPAASEDTIIGFLGQPVTLPCHYLSWSQSRNSMCWGKGSCPNSKCNAELLRTDGTRIISRKSTKYTLLGKVQFGEVSLTISNTNRGDSGVYCCRIEVPGWFNDVKKNVRLELRRATTTKKPTTTTRPTTTPYVTTTTPELLPTTVMTTSVLPTTTPPQTLATTAFSTAVTTCPSTTPGSFSQETTKGSAFTTESETLPASNHSQRSMMTISTDIAVLRPTGSNPGILPSTSQLTTQKTTLTTSESLQKTTKSHQINSRQTILIIACCVGFVLMVLLFLAFLHHLFYWDVWFIYNVCLAKVKGYRSLSTSQTFYDAYISYDTKDASVTDWVINELRYHLEESRDKNVLLCLEERDWDPGLAIIDNLMQSINQSKKTVFVLTKKYAKSWNFKTAFYLALQRLMDENMDVIIFILLEPVLQHSQYLRLRQRICKSSILQWPDNPKAEGLFWQTLRNVVLTENDSRYNNMYVDSIKQYLEGGGEGRGSLLTCGDVEENPGPMAPGLLCWALLCLLGAGLVDAGVTQSPTHLIKTRGQQVTLRCSPKSGHDTVSWYQQALGQGPQFIFQYYEEEERQRGNFPDRFSGHQFPNYSSELNVNALLLGDSALYLCASSLGWRGGRYNEQFFGPGTRLTVLEDLRNVTPPKVSLFEPSKAEIANKQKATLVCLARGFFPDHVELSWWVNGKEVHSGVCTDPQAYKESNYSYCLSSRLRVSATFWHNPRNHFRCQVQFHGLSEEDKWPEGSPKPVTQNISAEAWGRADCGITSASYQQGVLSATILYEILLGKATLYAVLVSTLVVMAMVKRKNSRAKRSGSGATNFSLLKQAGDVEENPGPMWGVFLLYVSMKMGGTTGQNIDQPTEMTATEGAIVQINCTYQTSGFNGLFWYQQHAGEAPTFLSYNVLDGLEEKGRFSSFLSRSKGYSYLLLKELQMKDSASYLCASVDGNNRLAFGKGNQVVVIPNIQNPEPAVYQLKDPRSQDSTLCLFTDFDSQINVPKTMESGTFITDKCVLDMKAMDSKSNGAIAWSNQTSFTCQDIFKETNATYPSSDVPCDATLTEKSFETDMNLNFQNLLVIVLRILLLKVAGFNLLMTLRLWSS | – | – | – | – | – | – | – | capable of phagocytosing SCC152 cells | Racl-dependent manner | about 30 minutes | engulfed streptavidin coated latex beads | exhibit antigen specific effector function as measured by IFNγ response | exhibit cytotoxic activity toward SCC152 cells | exponentially higher
